The results in this text go back to the PETadex activity labels.

Substrate in the data set: BHET
As to conditions: 120 h.

B1: unnamed (protein)
chain: MKNITIRSTVRAAVAATLAATAVSGFAQTTAPTSASLNATAGPLAVSTSTVTAPRGFGGGTIYYPTTQARYGVIAISPGFTATETSLAWLGRRIATHGFVVITLNTLTTLDQPASRATQLMAALNHVVNSSPAAVKARIDTARLAVAGHSMGGGGALIAARDNPTLKASYSLTPWNTNSSFSTVRVPTMIVGADGDTIAPVGTHARPFYAALPGTTSKAYGELNNGTHFSPNSTNTPIGRYGVAWMKRFLDADTRYSTFLCGAEHTSYATALVFDRYNQNCPY
As to B1, the plate clearing result is “not clears the plate”.

B2: unnamed (protein)
chain: MRDPPEYGTQTLHYPTDADPPFAAIAIVPGFVSPESSIIEWGPFLASHGIVVLTIGTNSGSDSPEIRSTALLAALETIKSEHARAGSPIEGKIDTTRLAVGGWSMGGGGTLLTITAHPELKAGLAICPWYTNAFAFAGNTVPVIMFAGTADVLAGGMSQGFYDAIPASTPKMLFEIAGADHFYANNPLMPNVQVGLYGLSWLKVFLEGDDRYRQFLLGPPQNASDFRTTVQ
B2: the plate clearing entry is on record as “not clears the plate”.

B3: unnamed (protein)
chain: MKKSIFSKLVVSAGALLLSSTLYASGGGSGGGGSVPPVGNNPCGPDPSSSALSRTGSSGPFSVATKNVSSFSASGFGGGTIHYPTNSNCGRMGGIAVVPGYVSYESSIEWWGPRLASWGFVVITINTNSIYDQPNSRADQLSAALDHIIDDSTVGSLVDPDRLGAIGWSMGGGGSLKLATDRARVRAIIPQAPWYSGSYGSMDTPAFMIACENDAIAPTSSHVDDFYRDASGPKMKIEVNNGSHYCANSGYNESLLGKPGIAWMKRYIDGDTRYNQFLCGNESYGSSYEVSDYDYASCP
As to B3, the plate clearing entry is listed as “not clears the plate”.

B4: unnamed (protein)
chain: MRKILLSVFTILSLNSYSQCDDVISSSITNPGIYEVATLSESDGVRNGADYYGSTIYYPINTNNFLGSIVIVPGFVSYEFSIQEWGPFLASHGIVCMTIGTNSIFEQPNQRATALLDAMVSLKEENSRNASPLNSKLDIDNIALGGWSMGGGGAQIAAKMDSSIKVVIALCPWLETGLISEEYLNHQAPILFISAEYDGIANASLHATPQYELSSETTPKLIYEVANGGHTVANYPTSGNGEVGLIALSWLKKYLLNEDCYCPILLESPETASMYMTNINCENSNLNAQEIECTEGWSIISTYVNPINTNFSNFIAPVVNNLIIAKDYIGNAYLPEWDYNGIGNIEQGQGYLIKMLNTMSLAVVGEQIIASENSISLNEGWNLFANFNTESTNSDLSFAALVETENVIIIKDYIGNAMLPEWEFNGLGDLQPGRGYQIKVTANCELQY
For B4, the plate clearing result was “not clears the plate”.

B5: unnamed (protein)
chain: MSTGTRVPHAGRAATAPVEGPRQRGRKMQHSLSTSRSRKRVTGILASLAVAVGVGIAAGPVAHGADNPHERGPDPSESSIEAVRGSYSISDRNVSSWVSGFGGGTIYYPTTTSDGDFGAVVISPGYTGTESTISWLGPRLASQGFVVLTMATNSIYDQPDSRARQLQAALDYLTDDSPVADRIDPDRLALMGHSMGGGGTLRAVDDNPDIKAAIPMTPWHLKKDWSSVTTPTLIFGAEDDSVARHETHAEPFYESFDRDLPKAYLELDGASHFAPNYSNTTIAKYSISWLKRFVDDDERYTQFLCPGPSTGWFSDVEKYESSCPL
In the case of B5, the plate clearing result was “not clears the plate”.

B6: unnamed (protein)
chain: MATMPSGTTALLSVTFFCTTPPSALSLKRHRYPSFRFRSPISVFLSRTHDYMQCRAPWGCMYSLGTPRGSVASRRTINEFLVGGVTQMNTKVQGSSASSAPKVGYPAKSLLAAGILLASFAANADVLFQEDFNAGLGQFTSGGDVTVTSSGARMQGCYGCTDGSITSGAISTVGFNTISLTFTRSTTGLDSGEAGIAEFSTNGSTWTTLESVRTASGARTVALPSTAAGQSALRIRFRINASLSSEYYTVDGVRVEGTPDGTPCTDCPPTGETAIGPDPTTATLEATAGSFTVATINVPSSVTGYGGGVIYYPTAAGTYGVVAMCPGYTASASSLAWWGTRLASWGLIVHIIDTNSTGDFPASRATQLIAALDYVKALNTSSTSPLRGKVANREAVSGHSMGGGGTLIAANNNASRTTLRAAFAMTPWSSSPDSFPSIRAATFVLGCESDNVASVSSHAYPFYVSIPSTVKKAYGEINNADHYCPTQSNPYKAQLGKYGVAWMKRHLEGDTRFDPWLCGAPHQQVVSGTFWSRYLSTCPY
Consider B6, for which the plate clearing result is recorded as “not clears the plate”.

B7: unnamed (protein)
chain: MRPSSSSLHTAVPLRPRSRAMTALIALATTLGLALALLTAAAPPAAAADLLSQGRPATSSSTENTSTPASAAVDGNTGTRWSSTFSDPQWLSVDLGATATISQVVLRWETAYARAFQIQTSTNGTAWTTVHSSTSGTGGVQTLDVNGNGRYVRMLGTQRGTTYGYSLFEFQVYGSGGGTPPGNGIPDPTATSLETANGPLTTANYTVPNPSGYGSGTVTYPTSSGSYPSVVLMPGYQGTQQNLQWLAPRLASWGFVVVNVGTNTLTDDPESRGRQISAAGTQLLALGNAAGNPLSGKVNGTLGAVGHSMGGGGVMAALRDDSRFRAGVPTAPYHPNANFSSVTEPTFFLTCQSDSVAHGNTYAVPWYNSMSQAEKLYIEVPGDHLCPMTGSGNKAKQGKWIVSFLSLWLRADTRFGPFLCGPVRDPDKNNTSLVTRWMDTCAF
Take B7: the plate clearing entry is on record as “not clears the plate”.

B8: unnamed (protein)
chain: MKTTTFKKSALSALTLLFSLSAFSGGGGGDDGNNDQLPAPDTCNSNCGYEIGPNPTLSFLEASQGPLSVSTTNVSSSVDGFGGGTIYYPTNTSQEMAAIAVAPGFTNTQSAIQWWGPILASHGFVVITIDTNGRFDQPESRSRQLDAALSYLISEGNRSSSPISGLVDENRLATMGFSMGGGGTLRSASRNRLSAAVPLAPWNTGGNNFDQIGVPTLIFACENDSTARVNSHASPFYNRIPSSTDKAYLEINNGPHNCANGNNSSNNALLSTYGVSWMKRFLDKDSRYNQFLCGPNHEANSRISEYRDTCNY
In the case of B8, the plate clearing result is “not clears the plate”.

B9: unnamed (protein)
chain: MKSFVKMCVGCVLALVMLAGISSADYRRGPNPSDSMLEARTGPFDFERSTVSRLSAGGYGGGTLFYPTNTNEGPFAGIVVCPGYMESDGQVDWWGPRLASNGFVVFVMQPQNTYMNQPSQRGNQMLDALDDLVSWNNSRNHAIYGLLDPNRLGLMGHSMGGGGTLIAAEDEANNPAVKAAIPLAPYALEKDFSRITCPTMIVACGADMIAPVAQHAMPFYRSLSDSIDKMFIEFAGDSHFCVIDGNMHMPTLGKLGIAWMKVFMDEDARYLTFLNDTNYGATMEVSRFQSNRPYSVPGGGTSGDCQQWTSSNDQHVSAGRAYTQQETVGCDTVTTYYAVGSNMSIGTSGYSSTTLHSSDGGNSYYTGSCP
Consider B9, for which the plate clearing entry is “not clears the plate”.

B10: unnamed (protein)
chain: MKTNRRRRLALAAAALLLSVAAQAQNGSAPPGPDPDPDPNPPESDNPYQRGPDPTAASLEASSGPFAVSTTTVSSASGFGGGTIYYPTNTEGPFAAIAVVPGFVGTESSIDWWGPRLASHGFVVITIDTNSVFDQPDSRATQLMAALDYVISQSNTSSSPISGMVDSNRLGVMGHSMGGGGSLIAARDNPTLKAAIPLAPWNSSTNFSAITVPTLIIACENDTVAPVSSHASPFYNSIPSSTDKAFLEINGGDHFCANSGNSNKDILGKYGVAWMKRFLDNDTRYDPFLCGPNHEADGSAISEYRDTCPY
Regarding B10, the plate clearing result is “not clears the plate”.

B11: unnamed (protein)
chain: MKTKRHRTATTTVPLPKRSRLARLALAAALLLLSFAAQAQVVIFQENFNSGLGQFTASGTVSTSSGGARMQGCYGCTDGAITSSPISTVGFTNLSLSFDRTTTGLDSGEAGIAEYSTNGSTWTVIESTQSTSSGRVTIALPAAAAGQAALRLRFRVNASLSSETYTVDNIQLEGTPGGGPGGNPYQRGPDPTAALLEASTGPFTYATTTVSSTAASGYGGGTIYYPTNTAGPFAAIAVCPGYTATQSSISWWGPRLASHGFVVITIDTNSTSDQPSSRATQLMAALNQLVTFSNTSGHPIYGKVDPNRLGVMGHSMGGGGTLIAARDNPTLKAAIPLAPWNSSTNFSGVTVPTLIVACESDTIAPVSSHALPFYNSIPSSTKKAYLEINNGDHFCVTTGNSYKAILGKYGVAWMKRFLDNDTRYSPFLCGAPHQADLSGSAISEYRDNCPY
As to B11, the plate clearing entry is recorded as “clears the plate (z > 3 vs empty vector)”.

B12: unnamed (protein)
chain: MKTSVTNFAKVTLTVATLLASAIASAQYTKGPDPTVAGLERDGSFTVRTTTVSSLAAVGFGKGTIYYPSAAGSYGVIAVSPGFTAYQSSISWIGSRLASHGFVVITIDTNTTSDQPDSRGSQLKAALDKVVSLSKSSSNVLYNKVDASRLAVAGHSMGGGGTLSAARDNPSYKAAVPLAPWHTTKSWPTLTVPTLIIGGEGDTVAGVSSHSIPFYTSISNSTKKAYMELNGEDHFFPQDATQYPLVGKYMISWFKRFVDNDTRYSAFICGAPHQTQIAVASKISDYRSNC
In the case of B12, the plate clearing entry is “not clears the plate”.

B13: unnamed (protein)
chain: MIHHFSVRALLAAGALLASAAVSAQTNPYERGPAPTTSSLEASRGPFSYQSFTVSRPSGYGAGTVYYPTNAGGPVGAIAIVPGFTARQSSINWWGPRLASHGFVVITIDTNSTLDQPDSRSRQQMAALNQVATLSRTSSSPIYNKVDTSRLGVMGWSMGGGGSLISARDNPSLKAAAPQAPWSSSKNFSSVTVPTLIIACENDSIAPVNQHADPFYDSMSRNPREFLEINGGSHSCANSGNSNQPLLGKKGVAWMKRFIDNDTRYTSFACSNPNSTRVSDFRVAACN
With B13, the plate clearing entry was “not clears the plate”.

B14: unnamed (protein)
chain: MPMSLASASTLSGRAYSRSMRSRTRRRRARSRRRVPPVSARAETSKGSIGMPSSYGGARRGFSLGHPRGVRRGCVQATRRVRFLDWPRPAASRGAGDPSRGDTMTGTISSRIAMRAVACCIGLFAFTAGSASAQIGPDPTSASLNATAGSFAVSTSRVTLARGFGGGTIYYPTAAGSYGVVAISPGFTATESSIAWLGRRLATHGLVVITMNTNTTLDQPASRATQLMAALNHVVNSASSTVRSRVDSTRLAVAGHSMGGGGALIAAEDNPTLKAALPLTPWNLSTSFTQVRVPTLIVGSDGDTVAPVAAHARPFYASLPATTFKAYAELNAASHFTPNSTNTPIGRYGVTWMKRFVDADTRYSPFLCGAPHTAYATALVFDRYSQNCPY
With B14, the plate clearing result is listed as “not clears the plate”.
